Laboratory results published in paper PMC6200776.

Key:
[1] = molecular target: VEGF121a-TMR; assay: fluorescence SDS-PAGE with and without DTT; purified VEGF-TMR isoforms in the presence or absence of 100 mM DTT; dimer in non-reducing conditions
[2] = molecular target: NanoLuc-VEGFR2 (UniProt P35968); assay: FRET or BRET; NanoBRET kinetics: live HEK293T cells with NanoLuc receptor, furimazine 5 min before 1-20 nM fluorescent VEGF, read every 30 s at 37°C; global fit of five concentrations; KD as koff/kon
[3] = molecular target: NanoLuc-VEGFR2 (UniProt P35968); assay: FRET or BRET; NanoBRET saturation: live HEK293T cells stably expressing the N-terminal NanoLuc receptor; increasing fluorescent VEGF with or without 100 nM unlabelled VEGF; 60 min, 37°C, HBSS/0.1% BSA
[4] = molecular target: NanoLuc-NRP1 (UniProt O14786); assay: FRET or BRET; NanoBRET full displacement: live HEK293T cells with NanoLuc receptor; increasing unlabelled VEGF (R&D Systems) added together with five fixed concentrations of fluorescent VEGF; 60 min, 37°C, HBSS/0.1% BSA
[5] = molecular target: NanoLuc-NRP1 (UniProt O14786); assay: FRET or BRET; NanoBRET kinetics: live HEK293T cells with NanoLuc receptor, furimazine 5 min before 1-20 nM fluorescent VEGF, read every 30 s at 37°C; global fit of five concentrations; KD as koff/kon
[6] = molecular target: NanoLuc-NRP1 (UniProt O14786); assay: FRET or BRET; NanoBRET saturation: live HEK293T cells stably expressing the N-terminal NanoLuc receptor; increasing fluorescent VEGF with or without 100 nM unlabelled VEGF; 60 min, 37°C, HBSS/0.1% BSA
[7] = molecular target: NanoLuc-VEGFR2 (UniProt P35968)
[8] = molecular target: VEGF165b-TMR; assay: fluorescence SDS-PAGE with and without DTT; purified VEGF-TMR isoforms in the presence or absence of 100 mM DTT; dimer in non-reducing conditions

Sequence of UniProt P35968 (P35968 20-1356): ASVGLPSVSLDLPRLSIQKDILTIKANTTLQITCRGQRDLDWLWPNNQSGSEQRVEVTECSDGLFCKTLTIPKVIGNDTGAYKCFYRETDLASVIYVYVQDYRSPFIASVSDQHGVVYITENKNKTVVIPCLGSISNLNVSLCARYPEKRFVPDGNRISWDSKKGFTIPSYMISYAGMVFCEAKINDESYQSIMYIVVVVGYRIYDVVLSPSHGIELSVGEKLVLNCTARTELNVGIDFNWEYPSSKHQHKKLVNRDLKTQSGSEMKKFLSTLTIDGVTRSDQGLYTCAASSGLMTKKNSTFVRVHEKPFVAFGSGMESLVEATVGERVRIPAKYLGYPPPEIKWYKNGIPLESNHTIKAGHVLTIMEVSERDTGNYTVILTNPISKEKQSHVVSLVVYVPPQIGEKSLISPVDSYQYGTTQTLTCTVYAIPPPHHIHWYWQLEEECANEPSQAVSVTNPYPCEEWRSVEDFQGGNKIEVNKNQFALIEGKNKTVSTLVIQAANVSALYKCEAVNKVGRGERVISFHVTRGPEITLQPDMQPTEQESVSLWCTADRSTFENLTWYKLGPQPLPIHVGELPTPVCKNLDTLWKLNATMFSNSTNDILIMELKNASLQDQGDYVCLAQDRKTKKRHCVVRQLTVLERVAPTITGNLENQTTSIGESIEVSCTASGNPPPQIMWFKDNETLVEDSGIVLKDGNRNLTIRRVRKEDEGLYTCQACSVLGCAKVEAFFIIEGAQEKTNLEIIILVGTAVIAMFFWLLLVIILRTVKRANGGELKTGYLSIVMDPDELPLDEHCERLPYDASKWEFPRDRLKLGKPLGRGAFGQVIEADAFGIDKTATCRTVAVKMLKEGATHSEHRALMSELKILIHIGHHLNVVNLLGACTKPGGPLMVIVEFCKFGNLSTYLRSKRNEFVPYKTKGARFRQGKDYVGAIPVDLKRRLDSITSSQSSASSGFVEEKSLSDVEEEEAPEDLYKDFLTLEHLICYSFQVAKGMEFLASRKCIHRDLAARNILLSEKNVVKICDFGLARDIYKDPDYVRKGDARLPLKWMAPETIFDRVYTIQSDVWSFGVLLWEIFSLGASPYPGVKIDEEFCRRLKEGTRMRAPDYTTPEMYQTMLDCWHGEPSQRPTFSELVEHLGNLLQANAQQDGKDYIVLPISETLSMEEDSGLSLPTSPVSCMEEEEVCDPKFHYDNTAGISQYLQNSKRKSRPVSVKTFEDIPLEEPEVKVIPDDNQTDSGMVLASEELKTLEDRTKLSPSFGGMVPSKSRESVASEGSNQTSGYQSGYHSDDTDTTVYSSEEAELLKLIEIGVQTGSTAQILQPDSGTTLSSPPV
Sequence of UniProt O14786 (O14786 22-923): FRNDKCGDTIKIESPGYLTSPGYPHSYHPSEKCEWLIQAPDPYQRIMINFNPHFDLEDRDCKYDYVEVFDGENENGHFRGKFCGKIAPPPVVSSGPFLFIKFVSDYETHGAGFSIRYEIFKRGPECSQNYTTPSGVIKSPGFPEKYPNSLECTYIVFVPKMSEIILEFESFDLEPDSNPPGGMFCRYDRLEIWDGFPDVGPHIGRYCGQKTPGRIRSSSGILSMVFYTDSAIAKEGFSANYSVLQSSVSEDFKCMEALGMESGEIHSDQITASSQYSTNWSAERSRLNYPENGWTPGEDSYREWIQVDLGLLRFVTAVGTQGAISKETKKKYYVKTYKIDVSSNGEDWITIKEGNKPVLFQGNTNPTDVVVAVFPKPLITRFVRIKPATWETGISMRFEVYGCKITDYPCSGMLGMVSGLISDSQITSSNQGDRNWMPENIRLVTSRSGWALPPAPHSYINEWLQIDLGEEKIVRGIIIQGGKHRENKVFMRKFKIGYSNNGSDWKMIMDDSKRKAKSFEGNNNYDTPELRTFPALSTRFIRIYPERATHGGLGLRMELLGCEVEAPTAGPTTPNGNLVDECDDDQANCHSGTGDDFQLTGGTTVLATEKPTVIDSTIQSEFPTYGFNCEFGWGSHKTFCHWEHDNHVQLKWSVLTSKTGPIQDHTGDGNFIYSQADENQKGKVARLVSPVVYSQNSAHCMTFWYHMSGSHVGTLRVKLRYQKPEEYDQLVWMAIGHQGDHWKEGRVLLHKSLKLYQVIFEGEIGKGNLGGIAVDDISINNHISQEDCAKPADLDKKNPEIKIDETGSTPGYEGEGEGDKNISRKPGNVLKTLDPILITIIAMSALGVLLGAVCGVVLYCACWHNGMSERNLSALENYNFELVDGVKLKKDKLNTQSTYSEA

Row | Substance | stoichiometry N [1] | Kd [2] [nM] | koff [2] [s⁻¹] | kon [2] [M⁻¹ s⁻¹] | Kd [3] [nM] | Ki [4] [nM] | pKi [4] | Kd [5] [nM] | koff [5] [s⁻¹] | kon [5] [M⁻¹ s⁻¹] | Kd [6] [nM] | Kd [4] [nM] | pEC50 of the NFAT reporter gene response, as told again in the discussion with another number [7] | stoichiometry N [8]
1 | VEGF121a-TMR (ligand) | 2 | 5.75 | 0.000833 | 142000 | 5.54 | – | – | – | – | – | – | – | – | –
2 | VEGF165a (ligand) | – | – | – | – | – | 0.1 | 9.54 | – | – | – | – | – | – | –
3 | VEGF165a-TMR (ligand) | – | 6.64 | 0.001 | 257000 | 2.03 | – | – | 4.95 | 0.00433 | 1.18e+06 | 4.41 | 1.11 | – | –
4 | VEGF165b-TMR (ligand) | – | 11.3 | 0.001 | 122000 | 9.53 | – | – | – | – | – | – | – | 8.28 | 2
